We go through five molecules from patent publication US20070054846A1, “Bcl-w structure and uses therefor” (priority 2002, published 2007).

What is called Kd is the concentration at which binding is half-saturated. As a reminder, the koff is a measure of how fast the partners let go of each other. Lower therefore signals a long-lived complex. The kon is a measure of how fast the partners come together. Higher therefore signals faster complex formation.

In one assay the target is T1, Bim-BH3 peptide (mouse).
T1 peptide: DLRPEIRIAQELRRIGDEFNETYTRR
In words: NMR, 15N-NOESY-HSQC chemical shift changes.

In assay [1] the target is T2, BimLΔC27 (mouse, UniProt O54918-2 1-113).
T2 construct: Truncation by 27 C-terminal residues is stated, the end residue is not; Numbering (L94) is that of the BimL isoform, not of the canonical BimEL entry; Immobilised on the CM5 chip in SPR; soluble protein in GST pull-downs; also called C-terminally truncated BimL; wt BimLΔC27
T2 sequence: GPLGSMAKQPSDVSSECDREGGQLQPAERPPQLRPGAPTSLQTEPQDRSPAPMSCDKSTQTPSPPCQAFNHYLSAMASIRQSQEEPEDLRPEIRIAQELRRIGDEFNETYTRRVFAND
The assay can be described thus: SPR (BIAcore 2000), BimLΔC27 immobilised. The method, then: (§1) Similar results were obtained when a corresponding mutation (L138A) was introduced into another BH3-only protein, Bmf (not shown).
(§2) Analysis of protein interactions by surface plasmon resonance was carried out on a BIAcore 2000 biosensor (BIAcore). For the immobilisation to BIAcore CM 5 sensorchips (BIAcore), wild-type or mutant Bim proteins were buffer exchanged into 20 mM Na-acetate, pH 4.5. N-hydroxysuccinimide coupling and binding analysis was done as described previously (Lackmann et al., 1997). In order to minimise mass-transport mediated effects the kinetic experiments were routinely carried out at 20 μl/min. Bcl-w binding at concentrations between 2 and 0.03 μM in running buffer (10 mM HEPES, pH 7.4, 150 mM NaCl, 3.4 mM EDTA, 0.005% Tween 20) was performed on sensorchip surfaces derivatised on parallel channels with a non-relevant protein, BimLΔC27 and BimLΔC27-L94A. The binding kinetics were derived from the sensorgrams following subtraction of baseline responses (measured on the control channel) by ‘global analysis’ using the BIA Evaluation software (vers. 3.02, BIAcore).

The target of assay [2] is T3, BimLΔC27-L94A (mouse, UniProt O54918-2 1-113).
T3 construct: also called Bim containing the L94 mutation; L94A mutant
T3 sequence: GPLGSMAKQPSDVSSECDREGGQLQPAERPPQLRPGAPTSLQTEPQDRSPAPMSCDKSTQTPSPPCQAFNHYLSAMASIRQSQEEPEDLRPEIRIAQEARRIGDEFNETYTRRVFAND
The assay can be described thus: SPR (BIAcore 2000), BimLΔC27-L94A immobilised; Bcl-w truncated by 29 residues (Bcl-wΔC29). The method, then:
as §1, §2
(Surface plasmon resonance follows binding to a sensor surface in real time, without labels.)

Assay [3] has as its target T2, BimLΔC27. The assay can be described thus: SPR (BIAcore 2000), global fit to a 1:1 Langmuir model. Sheet heads Bcl-w 'Immobilized' and Bim 'Analyte'; text says Bim immobilised, Bcl-w in solution. As for the experimental part:
(§3) FIG. 3A is a table showing the binding constants for various Bcl-w-BH3-only ligand complexes, which were determined using Biosensor experiments as described herein. FIG. 3B is a graphical representation showing the interaction kinetics of Bcl-w binding to BimLΔC27. Samples of serially diluted Bcl-w (2 μM-62.5 nM) were analysed on a BimLΔC27 sensor surface as described in Experimental Procedures. […] FIG. 3C is a graphical representation showing the interaction kinetics of Bcl-w or Bcl-wΔC29 binding to BimLΔC27 or BimLΔC27-L94A. […] Relative responses of samples between 1 μM and 62.5 nM are shown. FIG. 3D is a photographic representation of a GST pull-down assay to assess the binding capacity of Bcl-w proteins. Approximately equivalent amounts of the indicated GST-Bcl-w proteins were mixed with either soluble wt BimLΔC27 or soluble BimLΔC27-L94A. The intensity of the Bim band indicated the amount of protein that bound to Bcl-w. Molecular weight standards in kDa are indicated.
as §2, with “3.02, BIAcore). The surface of the chip was regenerated with 50 mM 1,2-diethylamine containing 0.1% Triton X100, followed by two washes with running buffer.” for “3.02, BIAcore).”

In assay [4] the target is T3, BimLΔC27-L94A. The description is as above. The method, then:
as §3
as §2, with “3.02, BIAcore). The surface of the chip was regenerated with 50 mM 1,2-diethylamine containing 0.1% Triton X100, followed by two washes with running buffer.” for “3.02, BIAcore).”

Assay [5] deals with T4, full-length Bcl-xL (Homo sapiens, UniProt Q07817).
T4 construct: FLAG-tagged full-length Bcl-xL or a C-terminally truncated mutant (ΔC24); expressed in transfected cells
In words: Co-immunoprecipitation from cell extracts. It counts as binding. To be noted: FLAG-tagged full-length Bcl-xL. The text has this:
(§4) Bcl-xL and Bcl-2 also contain hydrophobic residues at their C-termini, similar to those found in Bcl-w (FIG. 1C), yet the low level of sequence identity following α8 and the absence of 3D-structural information, makes prediction of their conformation difficult. Since BCl-xL, like Bcl-w, is only partially membrane-bound in healthy cells (Hsu et al., 1997), we compared the ability of FLAG-tagged full-length Bcl-xL or a C-terminally truncated mutant (ΔC24) to bind to BimL or the […]L94A B3 mutant.
Cell culture, stable transfections into FDC-P1, transient transfections into 293T human embryonic kidney cells, metabolic labelling with ^35S-methionine/cysteine (NEN) and co-immunoprecipitation have been previously described (O'Connor et al., 1998, Moriishi et al., 1999; Huang et al., 1998; Wilson-Annan et al., 2003). Briefly, mammalian pEF-based expression vectors for Bcl-w, BCl-xL, Bim, Bmf, Bad and Bik (O'Connor et al., 1998, Huang et al., 1998; Moriishi et al., 1999; Wilson-Annan et al., 2003) were transiently transfected using liposome mediated transfection (Lipofectamine™; Invitrogen). […] The immunoprecipitates were resolved by SDS-PAGE (Novex), transferred onto nitrocellulose membranes (APB) and the proteins detected by fluorography (Amplify; APB).

The target in assay [6] is T4, full-length Bcl-xL. The assay can be described thus: GST pull-down. It counts as binding.
Excerpt: as §4
Direct interactions between Bcl-w and BimL were monitored using GST pull-down experiments. These were performed in 100 μl of PBS (phosphate buffered saline pH 7.3) containing 2 mM DTT. Typically excess soluble proteins were added to equivalent amounts of resin bound proteins. After incubation at room temperature for 30 minutes the resin was pelleted and then washed twice with 200 μl of PBS containing 0.2% Tween 20. After removal of the second wash 10 μl of SDS-PAGE sample buffer was added to each sample and the samples were boiled then loaded onto 16% polyacrylamide gels that were electrophoresed and stained with Coomassie Blue R250. The staining intensity of the bound soluble protein indicated the strength of the interaction between the two proteins.

Another assay deals with T5, Bcl-xLΔC24 (Homo sapiens, UniProt Q07817).
T5 construct: expressed in transfected cells
In words: Co-immunoprecipitation / GST pull-down. It counts as binding. To be noted: C-terminally truncated Bcl-xL (ΔC24).
Excerpt: as §4
Direct interactions between Bcl-w and BimL were monitored using GST pull-down experiments. These were performed in 100 μl of PBS (phosphate buffered saline pH 7.3) containing 2 mM DTT. Typically excess soluble proteins were added to equivalent amounts of resin bound proteins. After incubation at room temperature for 30 minutes the resin was pelleted and then washed twice with 200 μl of PBS containing 0.2% Tween 20. […]
Cell culture, stable transfections into FDC-P1, transient transfections into 293T human embryonic kidney cells, metabolic labelling with ^35S-methionine/cysteine (NEN) and co-immunoprecipitation have been previously described (O'Connor et al., 1998, Moriishi et al., 1999; Huang et al., 1998; Wilson-Annan et al., 2003). […] The immunoprecipitates were resolved by SDS-PAGE (Novex), transferred onto nitrocellulose membranes (APB) and the proteins detected by fluorography (Amplify; APB).

The target in the next assay is T6, Bim (UniProt O54918-2 1-140, limits assumed).
T6 construct: also called BH3-only protein Bim
T6 sequence (looked up): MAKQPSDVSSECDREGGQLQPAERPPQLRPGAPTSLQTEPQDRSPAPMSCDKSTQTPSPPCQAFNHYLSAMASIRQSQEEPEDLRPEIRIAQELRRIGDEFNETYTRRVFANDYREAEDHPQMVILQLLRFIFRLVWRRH
In words: not described.

Assay [7] concerns the target T3, BimLΔC27-L94A. The assay can be described thus: SPR (BIAcore 2000). The method, then:
as §1, §2

Assay [8] addresses T3, BimLΔC27-L94A. The assay can be described thus: SPR (BIAcore 2000), BimLΔC27-L94A immobilised, Bcl-w in solution; full-length Bcl-w. As for the experimental part:
as §1, §2

Assay [9] addresses T2, BimLΔC27. The assay can be described thus: SPR (BIAcore 2000), BimLΔC27 immobilised, Bcl-w in solution, global 1:1 Langmuir fit. The method, then:
as §1, §2

T4 sequence (Q07817 whole entry, species assumed, the tested form may be a part): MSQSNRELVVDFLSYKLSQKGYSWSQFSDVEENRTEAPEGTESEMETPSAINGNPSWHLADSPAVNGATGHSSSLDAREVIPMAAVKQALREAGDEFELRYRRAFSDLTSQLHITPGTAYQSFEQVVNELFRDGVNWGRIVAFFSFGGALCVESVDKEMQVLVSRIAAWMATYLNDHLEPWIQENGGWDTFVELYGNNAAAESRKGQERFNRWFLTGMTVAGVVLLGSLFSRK
T5 sequence (Q07817 1-209 limits assumed, stated change not applied): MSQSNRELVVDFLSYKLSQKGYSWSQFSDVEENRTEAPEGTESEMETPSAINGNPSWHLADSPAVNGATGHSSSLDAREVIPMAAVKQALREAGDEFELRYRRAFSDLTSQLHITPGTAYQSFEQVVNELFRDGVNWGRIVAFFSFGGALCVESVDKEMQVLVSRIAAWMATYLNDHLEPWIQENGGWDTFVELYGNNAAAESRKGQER

B1: Bcl-wΔC10 (A128E), purified, NMR sample (other)
chain: GPLGSMATPASAPDTRALVADFVGYKLRQKGYVCGAGPGEGPAADPLHQAMRAAGDEFETRFRRTFSDLAAQLHVTPGSAQQRFTQVSDELFQGGPNWGRLVAFFVFGAALCAESVNKEMEPLVGQVQEWMVEYLETRLADWIHSSGGWAEFTALYGDGALEEARRLREGNWASVRTVLTGAVALGAL
notes: Isotope-labelled (15N) protein for the NOESY-HSQC with the Bim-BH3 peptide
Regarding B1, the binding result with Bim-BH3 peptide is “binds”.

B2: Bcl-wΔC29 (purified recombinant protein) (other)
chain: GPLGSMATPASAPDTRALVADFVGYKLRQKGYVCGAGPGEGPAADPLHQAMRAAGDEFETRFRRTFSDLAAQLHVTPGSAQQRFTQVSDELFQGGPNWGRLVAFFVFGAALCAESVNKEMEPLVGQVQEWMVAYLETRLADWIHSSGGWAEFTALYGDGALEEARRLRE
notes: Residue limits 1-164 follow from 193 aa minus 29; also called Bcl-w truncated by 29 residues at the C-terminus
For the molecule B2, the Kd with BimLΔC27 [1] worked out at 11 nM; in the assay with BimLΔC27-L94A [2], 13 nM. Moreover, in the assay with BimLΔC27 [1], the “fold increase in the association rate against full-length Bcl-w” value is 3 fold. The koff was determined as 0.0061 s⁻¹ in the assay with BimLΔC27 [3] and 0.0028 s⁻¹ with BimLΔC27-L94A [4]. For the same molecule, the kon with BimLΔC27 [3] worked out at 570000 M⁻¹ s⁻¹; in the assay with BimLΔC27-L94A [4] it was 210000 M⁻¹ s⁻¹.

B3: BimL: Bim isoform BimL, BH3-only protein (protein)
chain: MAKQPSDVSSECDREGGQLQPAERPPQLRPGAPTSLQTEPQDRSPAPMSCDKSTQTPSPPCQAFNHYLSAMASIRQSQEEPEDLRPEIRIAQELRRIGDEFNETYTRRVFANDYREAEDHPQMVILQLLRFIFRLVWRRH
modifications: left off: small tags and cut ends
notes: Bim isoform BimL, BH3-only protein
With B3, the “association in cell extracts” value with full-length Bcl-xL [5] is recorded as “associates only with wild-type BimL”. The “association in GST pull-down” value with full-length Bcl-xL [6] is on record as “more tightly with wild-type BimL”. Moreover, the binding entry in the assay with Bcl-xLΔC24 is “bound wild-type BimL and the L94A mutant equally”.

B4: Bcl-w with Arg95 mutated to Ala (other)
chain: MATPASAPDTRALVADFVGYKLRQKGYVCGAGPGEGPAADPLHQAMRAAGDEFETRFRRTFSDLAAQLHVTPGSAQQRFTQVSDELFQGGPNWGALVAFFVFGAALCAESVNKEMEPLVGQVQEWMVAYLETRLADWIHSSGGWAEFTALYGDGALEEARRLREGNWASVRTVLTGAVALGALVTVGAFFASK
notes: Construct and assay not described; also called Bcl-w R95A
For the molecule B4, the binding result with Bim was “no binding”.

B5: Bcl-w (full-length, purified recombinant protein) (other)
chain: GPLGSMATPASAPDTRALVADFVGYKLRQKGYVCGAGPGEGPAADPLHQAMRAAGDEFETRFRRTFSDLAAQLHVTPGSAQQRFTQVSDELFQGGPNWGRLVAFFVFGAALCAESVNKEMEPLVGQVQEWMVAYLETRLADWIHSSGGWAEFTALYGDGALEEARRLREGNWASVRTVLTGAVALGALVTVGAFFASK
notes: Expressed as GST fusion in E. coli, released with PreScission protease; analyte in solution in the BIAcore experiments; also called full length Bcl-w; wild-type Bcl-w
In the case of B5, in the assay with BimLΔC27-L94A [7], the “fold decrease in the association rate against BimLΔC27” value turned out to be 10 fold, the “fold increase in the dissociation rate against BimLΔC27” value worked out at 5 fold and the “fold reduction of affinity against BimLΔC27” value was greater than 60 fold. Further, the affinity in the assay with BimLΔC27-L94A [8], expressed as Kd, was 1600 nM. The molecule also showed a Kd with BimLΔC27 [9] of 24 nM. Moreover, in the assay with BimLΔC27 [3], the koff was 0.0043 s⁻¹ and the association rate constant (kon) was 180000 M⁻¹ s⁻¹. In the assay with BimLΔC27-L94A [4], this molecule had a koff of 0.02 s⁻¹ and a kon of 13000 M⁻¹ s⁻¹.
